From patent publication US20230406951A1 (Pfizer, published 2023)
Positions count from the first letter of the chain named.

T1: human TNFR2 (human, UniProt P20333 23-461)
T1 construct: expressed on the surface of CHO cells; also called HuTNFR2; TNFRSF1B
T1 sequence: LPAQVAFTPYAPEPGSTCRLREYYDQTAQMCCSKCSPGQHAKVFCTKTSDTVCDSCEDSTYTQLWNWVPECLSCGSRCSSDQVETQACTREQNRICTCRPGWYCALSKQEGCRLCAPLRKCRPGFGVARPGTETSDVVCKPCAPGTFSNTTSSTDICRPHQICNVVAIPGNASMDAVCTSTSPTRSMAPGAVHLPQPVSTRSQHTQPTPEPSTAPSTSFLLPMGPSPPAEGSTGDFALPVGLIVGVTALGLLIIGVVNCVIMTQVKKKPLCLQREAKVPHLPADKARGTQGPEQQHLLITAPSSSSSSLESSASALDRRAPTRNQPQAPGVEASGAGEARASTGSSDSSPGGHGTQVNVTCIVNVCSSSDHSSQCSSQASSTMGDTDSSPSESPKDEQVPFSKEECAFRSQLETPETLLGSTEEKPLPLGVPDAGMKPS

B1: TetraFab 2171 (antibody)
heavy: QVQLVQSGAEVKKPGASVKVSCKVSGFSFPSSGVDWVRQAPGQGLEWLGVTRGEGSTHYNQKFQGRVTITKDTSKSTVYMELSSLRSEDTAVYYCASGEWDEGFVYWGQGTLVTVSSASTKGPSVFPLAPSSKSTSGGTAALGCLVKDYFPEPVTVSWNSGALTSGVHTFPAVLQSSGLYSLSSVVTVPSSSLGTQTYICNVNHKPSNTKVDKKVEPKSCGGGGSQVQLVQSGAEVKKPGASVKVSCKVSGFSFPSSGVDWVRQAPGQGLEWLGVTRGEGSTHYNQKFQGRVTITKDTSKSTVYMELSSLRSEDTAVYYCASGEWDEGFVYWGQGTLVTVSSASTKGPSVFPLAPSSKSTSGGTAALGCLVKDYFPEPVTVSWNSGALTSGVHTFPAVLQSSGLYSLSSVVTVPSSSLGTQTYICNVNHKPSNTKVDKKVEPKSCDKTHTCPPCPAPEAAGAPSVFLFPPKPKDTLMISRTPEVTCVVVDVSHEDPEVKFNWYVDGVEVHNAKTKPREEQYNSTYRVVSVLTVLHQDWLNGKEYKCKVSNKALPAPIEKTISKAKGQPREPQVYTLPPSREEMTKNQVSLTCLVKGFYPSDIAVEWESNGQPENNYKTTPPVLDSDGSFFLYSKLTVDKSRWQQGNVFSCSVMHEALHNHYTQKSLSLSPGK
light: DIQLTQSPSFLSASVGDRVTITCKASQNVGTAVAWYQQKPGKAPKLLIYAASTLQSGVPSRFSGSGSGTEFTLTISSLQPEDFATYYCLQYSSYPLTFGGGTKVEIKRTVAAPSVFIFPPSDEQLKSGTASVVCLLNNFYPREAKVQWKVDNALQSGNSQESVTEQDSKDSTYSLSSTLTLSKADYEKHKVYACEVTHQGLSSPVTKSFNRGEC
notes: TetraFab
B2: TetraFab 2069 (antibody)
heavy: B1 heavy with W100R, W325R
light: B1 light with L89Q
notes: TetraFab
B3: TetraFab 2054 (antibody)
heavy: B1 heavy with R52K, E54Q, R277K, E279Q
light: B1 light with L89Q
notes: TetraFab
B4: TetraFab 2167 (antibody)
heavy: B1 heavy with R52H, E54S, W100H, R277H, E279S, W325H
light: B1 light with Y91K
notes: TetraFab
B5: TetraFab 2150 (antibody)
heavy: B1 heavy with R52K, E54Q, W100S, D101T, R277K, E279Q, W325S, D326T
light: B1 light with Y91K
notes: TetraFab
B6: TetraFab 2153 (antibody)
heavy: B1 heavy with R52K, E54Q, W100Q, R277K, E279Q, W325Q
light: B1 light with Y91K
notes: TetraFab
B7: TetraFab 2162 (antibody)
heavy: B1 heavy with R52L, E54H, W100S, D101T, R277L, E279H, W325S, D326T
light: B1 light with Y91K
notes: TetraFab
B8: TetraFab 2059 (antibody)
heavy: B1 heavy with R52W, E54V, W100S, D101T, R277W, E279V, W325S, D326T
light: B1 light with L89Q
notes: TetraFab
B9: TetraFab 2058 (antibody)
heavy: B1 heavy with R52H, E54S, R277H, E279S
light: B1 light with L89Q
notes: TetraFab
B10: TetraFab 2163 (antibody)
heavy: B1 heavy with R52L, E54H, W100H, R277L, E279H, W325H
light: B1 light with Y91K
notes: TetraFab
B11: TetraFab 2079 (antibody)
heavy: B1 heavy with R52H, E54S, W100S, D101T, R277H, E279S, W325S, D326T
light: B1 light with L89Q
notes: TetraFab
B12: TetraFab 2056 (antibody)
heavy: B1 heavy with R52F, G53Q, R277F, G278Q
light: B1 light with L89Q
notes: TetraFab
B13: TetraFab 2065 (antibody)
heavy: B1 heavy with R52K, E54Q, W100R, R277K, E279Q, W325R
light: B1 light with L89Q
notes: TetraFab
B14: TetraFab 2060 (antibody)
heavy: B1 heavy with R52W, E54V, W100H, R277W, E279V, W325H
light: B1 light with L89Q
notes: TetraFab
B15: TetraFab 2147 (antibody)
heavy: B1 heavy with R52W, E54V, W100H, R277W, E279V, W325H
light: B1 light with Y91K
notes: TetraFab
B16: TetraFab 2156 (antibody)
heavy: B1 heavy with W100R, W325R
light: B1 light with Y91K
notes: TetraFab
B17: TetraFab 2142 (antibody)
heavy: B1 heavy
light: B1 light with Y91K
notes: TetraFab
B18: TetraFab 2075 (antibody)
heavy: B1 heavy with R52L, E54H, W100S, D101T, R277L, E279H, W325S, D326T
light: B1 light with L89Q
notes: TetraFab
B19: TetraFab 2076 (antibody)
heavy: B1 heavy with R52L, E54H, W100H, R277L, E279H, W325H
light: B1 light with L89Q
notes: TetraFab
B20: TetraFab 2055 (antibody)
heavy: B1 heavy
light: B1 light with L89Q
notes: TetraFab
B21: TetraFab 2063 (antibody)
heavy: B1 heavy with R52K, E54Q, W100S, D101T, R277K, E279Q, W325S, D326T
light: B1 light with L89Q
notes: TetraFab
B22: TetraFab 2172 (antibody)
heavy: B1 heavy with R52F, G53Q, R277F, G278Q
light: B1 light
notes: TetraFab
B23: TetraFab 2057 (antibody)
heavy: B1 heavy with R52L, E54H, R277L, E279H
light: B1 light with L89Q
notes: TetraFab
B24: TetraFab 2154 (antibody)
heavy: B1 heavy with W100S, D101T, W325S, D326T
light: B1 light with Y91K
notes: TetraFab
B25: TetraFab 2066 (antibody)
heavy: B1 heavy with R52K, E54Q, W100Q, R277K, E279Q, W325Q
light: B1 light with L89Q
notes: TetraFab
B26: TetraFab 2143 (antibody)
heavy: B1 heavy with R52F, G53Q, R277F, G278Q
light: B1 light with Y91K
notes: TetraFab
B27: IgG 2041 (antibody, name in Kabat numbering, V domains shown)
VH: QVQLVQSGAEVKKPGASVKVSCKVSGFSFPSSGVDWVRQAPGQGLEWLGVTFQEGSTHYNQKFQGRVTITKDTSKSTVYMELSSLRSEDTAVYYCASGESTEGFVYWGQGTLVTVSS
VL: DIQLTQSPSFLSASVGDRVTITCKASQNVGTAVAWYQQKPGKAPKLLIYAASTLQSGVPSRFSGSGSGTEFTLTISSLQPEDFATYYCLQYSSYPLTFGGGTKVEIKR
notes: IgG
B28: IgG 2047 (antibody, name in Kabat numbering, V domains shown)
VH: B27 VH with F52L, Q53G, E54H, S100R, T101D
VL: B27 VL
notes: IgG
B29: IgG 2046 (antibody, name in Kabat numbering, V domains shown)
VH: B27 VH with F52L, Q53G, E54H, S100H, T101D
VL: B27 VL
notes: IgG
B30: IgG 2044 (antibody, name in Kabat numbering, V domains shown)
VH: B27 VH with S100Q, T101D
VL: B27 VL
notes: IgG
B31: IgG 2043 (antibody, name in Kabat numbering, V domains shown)
VH: B27 VH with S100R, T101D
VL: B27 VL
notes: IgG
B32: IgG 2048 (antibody, name in Kabat numbering, V domains shown)
VH: B27 VH with F52L, Q53G, E54H, S100Q, T101D
VL: B27 VL
notes: IgG
B33: IgG 2050 (antibody, name in Kabat numbering, V domains shown)
VH: B27 VH with F52H, Q53G, E54S, S100H, T101D
VL: B27 VL
notes: IgG
B34: IgG 2045 (antibody, name in Kabat numbering, V domains shown)
VH: B27 VH with F52L, Q53G, E54H
VL: B27 VL
notes: IgG
B35: IgG 2042 (antibody, name in Kabat numbering, V domains shown)
VH: B27 VH with S100H, T101D
VL: B27 VL
notes: IgG
B36: IgG 2052 (antibody, name in Kabat numbering, V domains shown)
VH: B27 VH with F52H, Q53G, E54S, S100Q, T101D
VL: B27 VL
notes: IgG
B37: IgG 2051 (antibody, name in Kabat numbering, V domains shown)
VH: B27 VH with F52H, Q53G, E54S, S100R, T101D
VL: B27 VL
notes: IgG

target: T1, human TNFR2; test: binding to human TNFR2 CHO cells

| binding result | Binder |
| --- | --- |
| no binding | B1 |
| no binding | B2 |
| no binding | B3 |
| no binding | B4 |
| no binding | B5 |
| no binding | B6 |
| no binding | B7 |
| no binding | B8 |
| no binding | B9 |
| no binding | B10 |
| no binding | B11 |
| no binding | B12 |
| no binding | B13 |
| no binding | B14 |
| no binding | B15 |
| no binding | B16 |
| no binding | B17 |
| no binding | B18 |
| no binding | B19 |

| binding result | Binder |
| --- | --- |
| no binding | B20 |
| no binding | B21 |
| no binding | B22 |
| no binding | B23 |
| no binding | B24 |
| no binding | B25 |
| no binding | B26 |
| no binding | B27 |
| no binding | B28 |
| no binding | B29 |
| no binding | B30 |
| no binding | B31 |
| no binding | B32 |
| no binding | B33 |
| no binding | B34 |
| no binding | B35 |
| no binding | B36 |
| no binding | B37 |
